Assay [1] has as its system CRTC3 KO mice. The experiment in a line: Tube dominance test, CRTC3 KO mice housed with WT mice. The assay is classed as in vivo, mouse. Here is the method:
(§1) The apparatus for the tube dominance test was made of a transparent plastic tube with a length of 30 cm and an inner diameter of 2.5 cm. To allow the mice to adapt to passing through the inside of the tube, the respective mice were trained to pass across the tube alternately on both sides for two or three consecutive days. During the training period, care was taken to ensure that the mice passed through the tube as naturally as possible without causing stress. This test was performed after identifying that all mice could freely pass through the tube without stress.
During the dominance test period, a total of 2 mice, one at each end of the tube, were placed to meet in the middle of the tube. In a case where one mouse pushed the other mouse out of the tube, one (1) winning point was earned. The test was repeated three times. […] For each test, win or loss was determined by winning points. […]
(§2) First, starting at 1 month of age, the CRTC3 KO mice and the WT mice were housed in one group and raised together for 2 months. […] To determine changes in ranking of the mice in the group, social dominance ranking was evaluated by a tube dominance test daily for 15 days starting at 3 months of age. The respective mice in the group were tested in turn, and dominance ranking of the mice in the group was determined based on their winning points. […]

The next assay deals with C57BL/6 mice. The experiment in a line: Tube dominance test, lowest-ranked mouse in C57BL/6 mouse group. The assay is classed as in vivo. The following applies: lowest-ranked C57BL/6 mouse, intracerebroventricular via osmotic pump. The protocol:
as §1
During the dominance test period, a total of 2 mice, one at each end of the tube, were placed to meet in the middle of the tube. In a case where one mouse pushed the other mouse out of the tube, one (1) winning point was earned. The test was repeated three times. […] For each test, win or loss was determined by winning points.
as §2

Assay [2] concerns CRTC3 KO primary astrocytes. The experiment in a line: Cell shape index (CSI) of astrocytes, GFAP immunocytochemistry. The assay is classed as cell-based, mouse. The following applies: AREG 200 ng/ml, vs WT astrocytes. The protocol: Next, to identify localization of CRTC3 in the cellular changes induced in astrocytes, comparison of astrocyte shape was performed between the CRTC3 KO mice and the WT mice. The shape of the cells was observed using GFAP as an astrocyte marker through fluorescent staining according to the method described in Experimental Example 1.4.
To more accurately compare the astrocyte shapes, complexity of the astrocyte shape was determined using the cell shape index (CSI) defined as follows (in the formula, P is a cell's perimeter and A is a cell's area).
Immunocytochemistry was performed as follows. First, a 12 mm coverslip (Marienfeld, Germany) coated with PDL was placed in a 24-well plate, and cells were plated thereon. Then, the cells were fixed with 4% paraformaldehyde (Biosesang, Korea) for 10 minutes. The cells were washed three times with PBS, and then subjected to permeabilization with PBS containing 0.1% Triton X-100 for 5 minutes at room temperature. The cells were washed again three times and blocked with PBS containing 5% bovine serum albumin (BSA) at 37° C. for 30 minutes. The cells were washed three times and incubated with mouse anti-GFAP antibody (Chemicon-Millipore, USA) overnight at 4° C. […] Then, each sample was mounted using a fluorescence mounting solution (DAKO, USA) for imaging.

Assay [3] deals with CRTC3 KO mice. Briefly: Warm spot test. The assay is classed as in vivo, mouse. The following applies: ICV osmotic pump, before vs after. Here is the method:
The warm spot test was performed using the following apparatus and method. The test apparatus was a box with dimensions of 30 cm by 30 cm, and the bottom was kept cold by ice. A fan-shaped heating mat of approximately 3 cm was laid one corner of the bottom to warm only that part of the bottom. In the first test, the mice were placed in a box with all bottom surfaces cold and kept thereon for 30 minutes to get used to the environment. After 30 minutes, the mice were moved to a box with a heating mat on one corner of the bottom, and the time each mouse occupied the bottom surface with the heating mat was measured for 20 minutes. Based on the measured time, each mouse's ranking in the group was determined.
First, starting at 1 month of age, the CRTC3 KO mice and the WT mice were housed in one group and raised together for 2 months. This allowed social ranking to be naturally formed among the mice in the same group. To determine changes in ranking of the mice in the group, social dominance ranking was evaluated by a tube dominance test daily for 15 days starting at 3 months of age. The respective mice in the group were tested in turn, and dominance ranking of the mice in the group was determined based on their winning points. […]

B1: AREG: Recombinant mouse amphiregulin from R&D Systems, SEQ ID NO: 11; EGF receptor ligand (protein, listed as Mus musculus)
chain: SVRVEQVIKPKKNKTEGEKSTEKPKRKKKGGKNGKGRRNKKKKNPCTAKFQNFCIHGECRYIENLEVVTCNCHQDYFGERCGEKSMKTHSEDDKDLSK
modifications: Mouse AREG Protein
notes: EGF receptor ligand
Turning to B1, the “cages in which changes (increase) in social dominance ranking were observed after administration” value in the assay on CRTC3 KO mice [1] (CRTC3 KO mice with low ranking, housed with WT mice, intracerebroventricular via osmotic pump) was 81%. Also, the “winning points after vs before administration” value with CRTC3 KO mice [1] (CRTC3 KO mice, ICV osmotic pump) is on record as “increase in winning points”. Moreover, the “cages in which ranking of the lowest-ranked mouse increased after administration” value in the assay with C57BL/6 mice amounted to 71%. For the same molecule, the “cell shape index (CSI)” value in assay [2] was “increased a CSI level of the primary astrocytes in the CRTC3 KO mice to that of the WT astrocytes”. In addition, in the assay on CRTC3 KO mice [3], the “social dominance ranking in warm spot test after administration” value was “increased social dominance ranking” and the “time occupying the warm spot after administration” value is reported as “increase in the time they occupied the warm spot”.

Source of the values: patent publication US20240315219A1, “ANIMAL MODEL FOR DISEASES ASSOCIATED WITH ABSENCE OR REDUCTION OF SOCIAL DOMINANCE, AND PHARMACEUTICAL COMPOSITION FOR PREVENTING OR TREATING DISEASES” (ADEL, Inc., priority 2021, published 2024).
